Source: paper doi:10.1101/644955

Molecular target: FLAG-tagged rainbow trout IL-2 (IL-2A), expressed in insect cells (rainbow trout (Oncorhynchus mykiss))
Assay: SEC

stoichiometry N: 2
Substance: FLAG-tagged rainbow trout IL-2 (IL-2A), expressed in insect cells (ligand)
